This is an account of results in publication doi:10.1101/2021.11.23.469700, “Zika virus-specific IgM elicited during pregnancy exhibits ultrapotent neutralization” (bioRxiv, 2021).

A word on the EC50: it is the concentration needed to bring the measured effect to its halfway point. The term Kd denotes the equilibrium constant for the complex coming apart. The low end stands for a tighter complex, the high end for a looser complex. The term koff denotes a measure of how fast the partners let go of each other. As usually defined, the stoichiometry N is a count of units in the complex or per binding partner.

One experiment has as its target DENV4 (H241) virion (Dengue virus 4 H241, UniProt Q58HT7, strain). The experiment is described as follows: ELISA; virion capture ELISA: virions captured on plates coated with 4G2 antibody; purified mAbs in 5-fold serial dilutions from 100 ug/mL, 1 hour at 37°C; HRP anti-human Ig; OD450. The following applies: one partner purified.
Experiment [1] addresses DENV3 (Philippines) virion (Dengue virus 3 Philippines (H87/1956 …, UniProt P27915)). The experiment is described as above. To be noted: one partner purified.
Experiment [2] concerns the target DENV2 (New Guinea C) virion (Dengue virus 2 New Guinea C, UniProt P14340, strain). Described as above. To be noted: one partner purified.
For experiment [3], the target named is T1, whole Zika PRVABC59 virion (Zika virus PRVABC59, UniProt A0A0X1LH65, strain).
T1 construct: also called ZIKV PRVABC59; whole ZIKV virion; source: ZIKV PRVABC59 from BEI, grown in Vero-81 cells, filtered cell supernatant
The description is as above. The following applies: one partner purified.

In another experiment the target is T2, DENV1 (Hawaii) virion (Dengue virus 1 Hawaii (BEI NR-82), UniProt B5AGU1, strain).
T2 construct: also called DENV1 (Hawaii NR-82)
Described as above. The following applies: one partner purified.

For a further experiment, the target named is T3, SSB (Bos taurus (assumed), UniProt P10881).
T3 construct: source: bought: Immunovision, SSB-3000
The experiment is described as follows: ELISA; autoantigen ELISA: purified antigens coated in 0.1M sodium bicarbonate; mAbs in 3-fold serial dilutions from 10 ug/ml, 1 hour at room temperature; HRP anti-human IgG, IgM and H+L. The following applies: both partners purified. On the technique in general: In an ELISA, binding on a coated surface is turned into a signal by an enzyme label.

Another experiment has as its target T4, Scl-70 (Bos taurus (assumed), UniProt A0AAA9TV68).
T4 construct: source: bought: Immunovision, SCL-3000
Described as above. To be noted: both partners purified.

A further experiment concerns the target T5, Centromere B (Homo sapiens, UniProt P07199).
T5 construct: source: bought: Prospec, PRO-390
The description is as above. The following applies: both partners purified.

Another experiment has as its target Jo-1 (Bos taurus (assumed), UniProt Q2KI84). The experiment is described as above. The following applies: both partners purified.
Experiment [4] addresses T6, ZIKV H/PF/2013 envelope (E) protein monomer (Zika virus H/PF/2013, UniProt A0A024B7W1, strain).
T6 construct: also called ZIKV E monomer
Briefly: ELISA; recombinant E protein ELISA: DH1017 mAbs immobilised at 0.5 ug/mL in TBS; his-tagged recombinant E protein in 2-fold dilutions from 20 ug/mL, 1 hour at 37°C; anti-his HRP; OD450. The following applies: both partners purified.

In experiment [5] the target is T7, ZIKV H/PF/2013 envelope (E) protein dimer (Zika virus H/PF/2013, UniProt A0A024B7W1, strain).
T7 construct: also called ZIKV E dimer; his-tagged recombinant E protein dimer; source: recombinant
The description is as above. The following applies: both partners purified.

For experiment [6], the target named is T7, ZIKV H/PF/2013 envelope (E) protein …. The experiment is described as follows: BLI; Octet Red96, 25°C, PBS pH 7.4; mAb captured on anti-human Ig AR2G tips; ZIKV E protein dimer 50-0.78 ug/mL; fast kinetic components of the heterogeneous ligand model fit; single measurement. To be noted: both partners purified.
The next experiment concerns the target T8, ZIKV H/PF/2013 virion (Zika virus H/PF/2013, strain).
T8 construct: also called ZIKV H/PF/2013 particles; Zika virion; copies: 180 +
The experiment is described as follows: cryo-EM structure; purified virus and DH1017.Fab incubated on ice for 2 hours; single particle reconstruction with icosahedral symmetry, 4104 particles, 5.3 Å. To be noted: both partners purified.

T4 sequence (P11387 whole entry): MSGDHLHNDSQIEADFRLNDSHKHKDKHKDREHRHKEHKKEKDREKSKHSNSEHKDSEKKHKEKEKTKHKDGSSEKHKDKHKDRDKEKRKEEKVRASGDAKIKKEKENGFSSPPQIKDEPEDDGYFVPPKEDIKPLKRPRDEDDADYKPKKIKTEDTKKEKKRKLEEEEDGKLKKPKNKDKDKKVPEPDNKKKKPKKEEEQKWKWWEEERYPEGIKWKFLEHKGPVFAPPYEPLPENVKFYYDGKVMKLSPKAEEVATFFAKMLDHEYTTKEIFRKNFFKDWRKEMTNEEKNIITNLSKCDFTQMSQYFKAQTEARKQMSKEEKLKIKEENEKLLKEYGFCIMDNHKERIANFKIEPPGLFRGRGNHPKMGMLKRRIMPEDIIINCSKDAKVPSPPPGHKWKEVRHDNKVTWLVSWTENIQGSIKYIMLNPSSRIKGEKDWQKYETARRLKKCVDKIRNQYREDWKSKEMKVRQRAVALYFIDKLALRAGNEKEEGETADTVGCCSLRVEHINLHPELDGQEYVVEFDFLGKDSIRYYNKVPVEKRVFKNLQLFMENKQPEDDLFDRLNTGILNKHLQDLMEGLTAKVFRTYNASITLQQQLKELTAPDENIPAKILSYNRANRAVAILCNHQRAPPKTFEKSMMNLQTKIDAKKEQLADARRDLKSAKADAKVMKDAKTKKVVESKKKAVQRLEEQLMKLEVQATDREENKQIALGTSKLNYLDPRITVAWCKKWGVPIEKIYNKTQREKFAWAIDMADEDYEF
T5 sequence (P07199 whole entry): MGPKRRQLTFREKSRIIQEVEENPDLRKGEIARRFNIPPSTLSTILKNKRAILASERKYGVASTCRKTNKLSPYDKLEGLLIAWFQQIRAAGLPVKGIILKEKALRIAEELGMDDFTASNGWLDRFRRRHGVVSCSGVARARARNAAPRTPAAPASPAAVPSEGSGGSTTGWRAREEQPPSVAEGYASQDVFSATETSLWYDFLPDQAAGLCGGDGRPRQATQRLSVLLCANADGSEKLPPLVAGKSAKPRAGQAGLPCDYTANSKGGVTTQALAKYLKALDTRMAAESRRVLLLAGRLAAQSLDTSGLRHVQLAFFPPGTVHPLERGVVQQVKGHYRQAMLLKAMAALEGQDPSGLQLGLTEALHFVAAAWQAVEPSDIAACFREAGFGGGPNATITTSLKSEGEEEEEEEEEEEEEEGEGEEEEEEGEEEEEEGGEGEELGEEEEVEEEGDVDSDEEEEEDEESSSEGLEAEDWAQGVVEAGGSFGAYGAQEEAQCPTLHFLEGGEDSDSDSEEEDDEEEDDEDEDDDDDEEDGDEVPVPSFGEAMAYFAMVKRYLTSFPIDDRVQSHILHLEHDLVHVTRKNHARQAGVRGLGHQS
T3 sequence (P05455 whole entry): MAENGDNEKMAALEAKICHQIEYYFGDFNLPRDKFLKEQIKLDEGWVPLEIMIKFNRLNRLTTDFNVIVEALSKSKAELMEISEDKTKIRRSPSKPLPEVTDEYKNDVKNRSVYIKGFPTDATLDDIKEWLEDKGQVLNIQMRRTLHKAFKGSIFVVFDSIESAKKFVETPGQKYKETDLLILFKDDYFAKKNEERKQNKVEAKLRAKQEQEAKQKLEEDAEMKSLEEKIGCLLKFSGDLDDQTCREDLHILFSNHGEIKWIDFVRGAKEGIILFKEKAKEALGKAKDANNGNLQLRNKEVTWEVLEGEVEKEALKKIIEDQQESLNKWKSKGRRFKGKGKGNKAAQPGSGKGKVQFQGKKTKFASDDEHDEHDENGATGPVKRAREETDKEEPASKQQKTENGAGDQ
Jo-1, sequence (P12081 whole entry): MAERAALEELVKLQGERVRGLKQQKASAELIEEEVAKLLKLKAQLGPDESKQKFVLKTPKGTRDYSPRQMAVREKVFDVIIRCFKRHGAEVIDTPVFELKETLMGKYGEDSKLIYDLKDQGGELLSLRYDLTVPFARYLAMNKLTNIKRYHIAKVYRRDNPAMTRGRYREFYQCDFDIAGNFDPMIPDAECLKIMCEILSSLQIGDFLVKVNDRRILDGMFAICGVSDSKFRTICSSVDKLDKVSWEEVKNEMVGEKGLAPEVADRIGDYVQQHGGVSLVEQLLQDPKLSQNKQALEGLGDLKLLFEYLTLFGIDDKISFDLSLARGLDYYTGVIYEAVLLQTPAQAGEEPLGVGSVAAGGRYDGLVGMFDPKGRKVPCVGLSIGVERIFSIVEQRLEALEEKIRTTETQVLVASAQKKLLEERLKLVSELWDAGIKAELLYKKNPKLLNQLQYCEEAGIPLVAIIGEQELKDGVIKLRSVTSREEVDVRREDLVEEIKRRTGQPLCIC

B1: DH1017.IgM (antibody, V domains shown)
VH: QVQLQESGPGLVKPSQTLSLTCAVSGGSISSGDSYWSWIRQHPGKGLEWIGSIYYSGSTYYNPSLKSRVTIPIDTSKNQFSLKLSSVTAADTAVYYCARHVGDLRVNDAFDIWGQGTMVTVSS
VL: QSVLTQPPSVSAAPGQKVTISCSGSSSNIGNNFVSWYQRLPGTPPKLLIYDSDKRPSGIPDRFSGSKSGTSATLGITGLQTGDEGDYYCGTWDRSLSVVVFGGGTKLTVL
notes: also called mAb DH1017.IgM; copies: 10 + 10
Turning to B1, the binding result was “no binding (tested: 100 ug/mL (start of the dilution series))” in the experiment with DENV4 (H241) virion; “no binding (tested: 100 ug/mL (start of the dilution series))” in experiment [1]; “no binding (tested: 100 ug/mL (start of the dilution series))” in [2]; “no binding (tested: 100 ug/mL (start of the dilution series))” with DENV1 (Hawaii) virion; “no binding (tested: 10 ug/ml (start of the dilution series))” with SSB; “no binding (tested: 10 ug/ml (start of the dilution series))” with Scl-70. In addition, the binding result in the experiment with Centromere B and with Jo-1 was “no binding (tested: 10 ug/ml (start of the dilution series))” throughout. Besides, the 50% effective concentration (EC50) in experiment [3] is 0.022 nM; in experiment [4] it was 0.202 nM; in experiment [5], 0.091 nM. In experiment [6], this molecule showed a dissociation constant Kd of 106 nM. The molecule also returned an off-rate (koff) in [6] of 0.0103 s⁻¹.

B2: DH1017.IgG (antibody, V domains shown)
VH: B1 VH
VL: B1 VL
notes: IgG1; also called recombinant DH1017.IgG; IgG1 isoform of DH1017; source: Expi 293i cells, co-transfected heavy and light chain plasmids, purified (Protein A resin)
For B2, the EC50 was 0.112 nM in [3], 0.463 nM in experiment [4] and 0.929 nM in experiment [5]. In addition, the binding result with SSB, in the experiment with Scl-70, with Centromere B and with Jo-1 was “no binding (tested: 10 ug/ml (start of the dilution series))” each time. For the same molecule, the Kd in [6] came out at 123 nM. In experiment [6], this molecule had a koff of 0.0091 s⁻¹.

B3: DH1017.Fab (Fab, V domains shown)
VH: B1 VH
VL: B1 VL
notes: also called DH1017 Fab fragment; Fab DH1017; source: Expi 293i cells, co-transfected heavy and light chain plasmids, purified (LambdaFabSelect agarose beads)
B3: the binding result with SSB, in the experiment with Scl-70, with Centromere B and in the experiment with Jo-1 was “no binding (tested: 10 ug/ml (start of the dilution series))” in each case. The “stoichiometry N” value with ZIKV H/PF/2013 virion is 1.5 Fab per asymmetric unit. For the same molecule, the half-maximal effective concentration (EC50) in [4] was 1.24 nM; in experiment [5], 25.1 nM.
